From patent US20150344570A1 (published 2015)

T1: FcγRIIb (human, UniProt P31994 43-217)
T1 construct: extracellular domain; Soluble extracellular domain with C-terminal His tag, used as analyte; also called FcgRIIb; CD32B; not shown: His tag at the C terminus
T1 sequence (looked up): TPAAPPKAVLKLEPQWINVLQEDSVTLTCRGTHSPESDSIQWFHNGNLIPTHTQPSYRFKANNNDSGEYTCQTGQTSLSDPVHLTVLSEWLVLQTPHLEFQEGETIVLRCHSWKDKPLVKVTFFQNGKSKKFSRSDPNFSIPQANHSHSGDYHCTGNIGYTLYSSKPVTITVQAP

T2: FcγRIIb extracellular domain with C-terminal His tag (human, UniProt P31994 43-217)
T2 construct: extracellular domain; also called 2b; FcgRIIb; not shown: His tag at the C terminus
T2 sequence (looked up): T1 sequence (looked up)

B1: GpH7-A5/GpH7-B3 variant S324_02A/GpL16-k0 (antibody, human IgG1, kappa)
heavy 1: not shown
heavy 2: not shown
light: DIVMTQSPLSLPVTPGEPASISCQASESLVHSNRNTYLHWYLQKPGQSPQLLIYKVSNRFSGVPDRFSGSGSGTDFTLKISRVEAEDVGVYYCSQNTHVPPTFGQGTKVEIERTVAAPSVFIFPPSDEQLKSGTASVVCLLNNFYPREAKVQWKVDNALQSGNSQESVTEQDSKDSTYSLSSTLTLSKADYEKHKVYACEVTHQGLSSPVTKSFNRGEC
notes: He Ab: mutation in one H chain only; also called He Ab
B2: GpH7-A5/GpH7-B3 variant S337_02A/GpL16-k0 (antibody, human IgG1, kappa)
heavy 1: not shown
heavy 2: not shown
light: B1 light
notes: as for B1
B3: GpH7-A5/GpH7-B3 variant H268_15Y/GpL16-k0 (antibody, human IgG1, kappa)
heavy 1: not shown
heavy 2: not shown
light: B1 light
notes: IgG1, anti-glypican-3; also called He Ab
B4: GpH7-A5/GpH7-B3 variant Y300_09D/GpL16-k0 (antibody, human IgG1, kappa)
heavy 1: not shown
heavy 2: not shown
light: B1 light
notes: as for B1
B5: GpH7-A5/GpH7-B3 variant S324_20W/GpL16-k0 (antibody, human IgG1, kappa)
heavy 1: not shown
heavy 2: not shown
light: B1 light
notes: as for B1
B6: GpH7-A5/GpH7-B3 variant Y300_13S/GpL16-k0 (antibody, human IgG1, kappa)
heavy 1: not shown
heavy 2: not shown
light: B1 light
notes: as for B1
B7: GpH7-A5/GpH7-B3 variant S324_15Y/GpL16-k0 (antibody, human IgG1, kappa)
heavy 1: not shown
heavy 2: not shown
light: B1 light
notes: as for B1
B8: GpH7-A5/GpH7-B3 variant S337_11K/GpL16-k0 (antibody, human IgG1, kappa)
heavy 1: not shown
heavy 2: not shown
light: B1 light
notes: as for B1
B9: GpH7-A5/GpH7-B3 variant S324_09D/GpL16-k0 (antibody, human IgG1, kappa)
heavy 1: not shown
heavy 2: not shown
light: B1 light
notes: as for B1
B10: GpH7-A5/GpH7-B3 variant Y300_12R/GpL16-k0 (antibody, human IgG1, kappa)
heavy 1: not shown
heavy 2: not shown
light: B1 light
notes: as for B1
B11: GpH7-A5/GpH7-B3 variant S337_06M/GpL16-k0 (antibody, human IgG1, kappa)
heavy 1: not shown
heavy 2: not shown
light: B1 light
notes: as for B1
B12: GpH7-A5/GpH7-B3 variant S337_12R/GpL16-k0 (antibody, human IgG1, kappa)
heavy 1: not shown
heavy 2: not shown
light: B1 light
notes: as for B1
B13: GpH7-A5/GpH7-B3 variant S337_19Q/GpL16-k0 (antibody, human IgG1, kappa)
heavy 1: not shown
heavy 2: not shown
light: B1 light
notes: as for B1
B14: GpH7-A5/GpH7-B3 variant S324_19Q/GpL16-k0 (antibody, human IgG1, kappa)
heavy 1: not shown
heavy 2: not shown
light: B1 light
notes: as for B1
B15: GpH7-A5/GpH7-B3 variant S324_18N/GpL16-k0 (antibody, human IgG1, kappa)
heavy 1: not shown
heavy 2: not shown
light: B1 light
notes: as for B1
B16: GpH7-A5/GpH7-B3 variant H268_05P/GpL16-k0 (antibody, human IgG1, kappa)
heavy 1: not shown
heavy 2: not shown
light: B1 light
notes: as for B3
B17: GpH7-A5/GpH7-B3 variant H268_01G/GpL16-k0 (antibody, human IgG1, kappa)
heavy 1: not shown
heavy 2: not shown
light: B1 light
notes: as for B3
B18: GpH7-A5/GpH7-B3 variant S324_16H/GpL16-k0 (antibody, human IgG1, kappa)
heavy 1: not shown
heavy 2: not shown
light: B1 light
notes: as for B1
B19: GpH7-A5/GpH7-B3 variant Y300_20W/GpL16-k0 (antibody, human IgG1, kappa)
heavy 1: not shown
heavy 2: not shown
light: B1 light
notes: as for B1
B20: GpH7-A5/GpH7-B3 variant Y300_05P/GpL16-k0 (antibody, human IgG1, kappa)
heavy 1: not shown
heavy 2: not shown
light: B1 light
notes: as for B1
B21: GpH7-A5/GpH7-B3 variant A327_01G/GpL16-k0 (antibody, human IgG1, kappa)
heavy 1: not shown
heavy 2: not shown
light: B1 light
notes: as for B3
B22: GpH7-A5/GpH7-B3 variant Y300_16H/GpL16-k0 (antibody, human IgG1, kappa)
heavy 1: not shown
heavy 2: not shown
light: B1 light
notes: as for B1
B23: GpH7-A5/GpH7-B3 variant S324_14T/GpL16-k0 (antibody, human IgG1, kappa)
heavy 1: not shown
heavy 2: not shown
light: B1 light
notes: as for B1
B24: GpH7-A5/GpH7-B3 variant Y300_08L/GpL16-k0 (antibody, human IgG1, kappa)
heavy 1: not shown
heavy 2: not shown
light: B1 light
notes: as for B1
B25: GpH7-A5/GpH7-B3 variant S337_03V/GpL16-k0 (antibody, human IgG1, kappa)
heavy 1: not shown
heavy 2: not shown
light: B1 light
notes: as for B1
B26: GpH7-A5/GpH7-B3 variant S337_01G/GpL16-k0 (antibody, human IgG1, kappa)
heavy 1: not shown
heavy 2: not shown
light: B1 light
notes: as for B1
B27: GpH7-A5/GpH7-B3 variant Y300_07I/GpL16-k0 (antibody, human IgG1, kappa)
heavy 1: not shown
heavy 2: not shown
light: B1 light
notes: as for B1
B28: GpH7-A5/GpH7-B3 variant S324_12R/GpL16-k0 (antibody, human IgG1, kappa)
heavy 1: not shown
heavy 2: not shown
light: B1 light
notes: as for B1
B29: GpH7-A5/GpH7-B3 variant Y300_14T/GpL16-k0 (antibody, human IgG1, kappa)
heavy 1: not shown
heavy 2: not shown
light: B1 light
notes: as for B1
B30: GpH7-A5/GpH7-B3 variant H268_03V/GpL16-k0 (antibody, human IgG1, kappa)
heavy 1: not shown
heavy 2: not shown
light: B1 light
notes: as for B3
B31: GpH7-A5/GpH7-B3 variant Y300_11K/GpL16-k0 (antibody, human IgG1, kappa)
heavy 1: not shown
heavy 2: not shown
light: B1 light
notes: as for B1
B32: GpH7-A5/GpH7-B3 variant Y300_03V/GpL16-k0 (antibody, human IgG1, kappa)
heavy 1: not shown
heavy 2: not shown
light: B1 light
notes: as for B1
B33: GpH7-A5/GpH7-B3 variant S324_11K/GpL16-k0 (antibody, human IgG1, kappa)
heavy 1: not shown
heavy 2: not shown
light: B1 light
notes: as for B1
B34: GpH7-A5/GpH7-B3 variant S337_04F/GpL16-k0 (antibody, human IgG1, kappa)
heavy 1: not shown
heavy 2: not shown
light: B1 light
notes: as for B1
B35: GpH7-A5/GpH7-B3 variant S324_10E/GpL16-k0 (antibody, human IgG1, kappa)
heavy 1: not shown
heavy 2: not shown
light: B1 light
notes: as for B1
B36: GpH7-A5/GpH7-B3 variant Y300_06M/GpL16-k0 (antibody, human IgG1, kappa)
heavy 1: not shown
heavy 2: not shown
light: B1 light
notes: as for B1
B37: GpH7-A5/GpH7-B3 variant Y300_02A/GpL16-k0 (antibody, human IgG1, kappa)
heavy 1: not shown
heavy 2: not shown
light: B1 light
notes: as for B1

Experiments:
[1] = target: T3, FcγRIa (human, UniProt P12314 16-292); assay: SPR (Biacore), captured antibody, FcγR as analyte, relative binding
T3 construct: extracellular domain; Soluble extracellular domain with C-terminal His tag, used as analyte; also called FcgRI; CD64; not shown: His tag at the C terminus
T3 sequence (P12314 16-292): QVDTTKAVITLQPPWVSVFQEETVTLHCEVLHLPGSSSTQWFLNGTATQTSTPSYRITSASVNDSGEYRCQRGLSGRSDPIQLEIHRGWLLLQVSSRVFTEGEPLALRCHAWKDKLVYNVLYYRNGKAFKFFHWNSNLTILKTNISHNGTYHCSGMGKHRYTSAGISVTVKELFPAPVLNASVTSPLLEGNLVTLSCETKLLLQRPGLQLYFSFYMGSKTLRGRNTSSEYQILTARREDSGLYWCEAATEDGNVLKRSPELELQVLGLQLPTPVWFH

[2] = target: T1, FcγRIIb; assay: as above
[3] = target: T4, FcγRIIIa extracellular domain with C-terminal His tag (human, UniProt P08637 17-208); assay: SPR (Biacore), relative to GpH7-A5/GpH7-B3/GpL16-k0 = 100
T4 construct: extracellular domain; also called 3a; FcgRIIIa; not shown: His tag at the C terminus
T4 sequence (P08637 17-208): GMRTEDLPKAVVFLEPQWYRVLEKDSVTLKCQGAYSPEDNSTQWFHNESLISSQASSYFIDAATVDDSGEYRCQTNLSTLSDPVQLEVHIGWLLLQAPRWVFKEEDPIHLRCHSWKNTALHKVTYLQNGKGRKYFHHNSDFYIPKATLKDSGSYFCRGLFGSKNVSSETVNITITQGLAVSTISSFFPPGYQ

[4] = target: T2, FcγRIIb extracellular domain with …; assay: as above

Binder	He/Con_1a [1]	He/Con_2b [2]	He/Con_3a [3]	He/Con_2b [4]
B1	103 % of GpH7-A5/GpH7-B3/GpL16-k0	78.3 % of GpH7-A5/GpH7-B3/GpL16-k0		
B2	106 % of GpH7-A5/GpH7-B3/GpL16-k0	97.2 % of GpH7-A5/GpH7-B3/GpL16-k0		
B3			97.5 % (control = 100)	106 % (control = 100)
B4	112 % of GpH7-A5/GpH7-B3/GpL16-k0	93.2 % of GpH7-A5/GpH7-B3/GpL16-k0		
B5	114 % of GpH7-A5/GpH7-B3/GpL16-k0	87.5 % of GpH7-A5/GpH7-B3/GpL16-k0		
B6	111 % of GpH7-A5/GpH7-B3/GpL16-k0	53.9 % of GpH7-A5/GpH7-B3/GpL16-k0		
B7	114 % of GpH7-A5/GpH7-B3/GpL16-k0	88.2 % of GpH7-A5/GpH7-B3/GpL16-k0		
B8	104 % of GpH7-A5/GpH7-B3/GpL16-k0	94.3 % of GpH7-A5/GpH7-B3/GpL16-k0		
B9	104 % of GpH7-A5/GpH7-B3/GpL16-k0	85.8 % of GpH7-A5/GpH7-B3/GpL16-k0		
B10	105 % of GpH7-A5/GpH7-B3/GpL16-k0	41.2 % of GpH7-A5/GpH7-B3/GpL16-k0		
B11	107 % of GpH7-A5/GpH7-B3/GpL16-k0	96.7 % of GpH7-A5/GpH7-B3/GpL16-k0		
B12	106 % of GpH7-A5/GpH7-B3/GpL16-k0	99.5 % of GpH7-A5/GpH7-B3/GpL16-k0		
B13	105 % of GpH7-A5/GpH7-B3/GpL16-k0	99.7 % of GpH7-A5/GpH7-B3/GpL16-k0		
B14	112 % of GpH7-A5/GpH7-B3/GpL16-k0	66.8 % of GpH7-A5/GpH7-B3/GpL16-k0		
B15	116 % of GpH7-A5/GpH7-B3/GpL16-k0	81.1 % of GpH7-A5/GpH7-B3/GpL16-k0		
B16			76.4 % (control = 100)	116 % (control = 100)
B17			96.7 % (control = 100)	144 % (control = 100)
B18	113 % of GpH7-A5/GpH7-B3/GpL16-k0	83.5 % of GpH7-A5/GpH7-B3/GpL16-k0		
B19	112 % of GpH7-A5/GpH7-B3/GpL16-k0	84.1 % of GpH7-A5/GpH7-B3/GpL16-k0		

Binder	He/Con_1a [1]	He/Con_2b [2]	He/Con_3a [3]	He/Con_2b [4]
B20	60.2 % of GpH7-A5/GpH7-B3/GpL16-k0	7.3 % of GpH7-A5/GpH7-B3/GpL16-k0		
B21			72.4 % (control = 100)	116 % (control = 100)
B22	111 % of GpH7-A5/GpH7-B3/GpL16-k0	87 % of GpH7-A5/GpH7-B3/GpL16-k0		
B23	121 % of GpH7-A5/GpH7-B3/GpL16-k0	88.4 % of GpH7-A5/GpH7-B3/GpL16-k0		
B24	113 % of GpH7-A5/GpH7-B3/GpL16-k0	73.6 % of GpH7-A5/GpH7-B3/GpL16-k0		
B25	107 % of GpH7-A5/GpH7-B3/GpL16-k0	98.9 % of GpH7-A5/GpH7-B3/GpL16-k0		
B26	107 % of GpH7-A5/GpH7-B3/GpL16-k0	92 % of GpH7-A5/GpH7-B3/GpL16-k0		
B27	108 % of GpH7-A5/GpH7-B3/GpL16-k0	74.5 % of GpH7-A5/GpH7-B3/GpL16-k0		
B28	102 % of GpH7-A5/GpH7-B3/GpL16-k0	63.1 % of GpH7-A5/GpH7-B3/GpL16-k0		
B29	112 % of GpH7-A5/GpH7-B3/GpL16-k0	55.6 % of GpH7-A5/GpH7-B3/GpL16-k0		
B30			92.3 % (control = 100)	114 % (control = 100)
B31	107 % of GpH7-A5/GpH7-B3/GpL16-k0	51.6 % of GpH7-A5/GpH7-B3/GpL16-k0		
B32	117 % of GpH7-A5/GpH7-B3/GpL16-k0	73.9 % of GpH7-A5/GpH7-B3/GpL16-k0		
B33	102 % of GpH7-A5/GpH7-B3/GpL16-k0	68.6 % of GpH7-A5/GpH7-B3/GpL16-k0		
B34	106 % of GpH7-A5/GpH7-B3/GpL16-k0	97.8 % of GpH7-A5/GpH7-B3/GpL16-k0		
B35	105 % of GpH7-A5/GpH7-B3/GpL16-k0	77.4 % of GpH7-A5/GpH7-B3/GpL16-k0		
B36	112 % of GpH7-A5/GpH7-B3/GpL16-k0	84.3 % of GpH7-A5/GpH7-B3/GpL16-k0		
B37	112 % of GpH7-A5/GpH7-B3/GpL16-k0	69.2 % of GpH7-A5/GpH7-B3/GpL16-k0		
